Changes are numbered by the printed parent chain. Names and notes keep the numbering of the source.
B1: X97 scFv (VH-CDR3 mutations of X65 in the X76 framework) (scFv, V domains shown)
VH: EVQLVQSGGGVVQPGGSLRLSCAASGYTFTNYGMNWIRQAPGKGLEWVGWINTYTGEPTYAADFKRRVTFSLDTSKSTAYLQLNSLRAEDTAVYYCAKYPYYYGRSHWYFDVWGQGTLVTVSS
VL: DIQMTQSPSSLSASVGDRVTITCSASQDISNYLNWYQQKPGKAPKVLIYFTSSLHSGVPSRFSGSGSGTDFTLTISSLQPEDFATYYCQQYSTVPWTFGQGTKVEIK
notes: as the VH of m8 (X76 framework) with the VH-CDR3 changes of X65; scFv linker; VL as in m8; likely as the VL of m4; source: Pichia pastoris X33 (pPIC6 alpha), culture supernatant, purified (Ni-NTA)
B2: X96 scFv (VH-CDR3 mutations of X65 in the X72 framework) (scFv, V domains shown)
VH: B1 VH with I37V, V68F, L83M
VL: B1 VL
notes: as the VH of m7 (X72 framework) with the VH-CDR3 changes of X65; scFv linker; VL as in m7; likely as the VL of m4; source: Pichia pastoris X33 (pPIC6 alpha), culture supernatant, purified (Ni-NTA)
B3: X76 scFv (humanization lead) (scFv, V domains shown)
VH: B1 VH with Y101H, R105S
VL: B1 VL
notes: as the VH of m4 (WT) with the stated framework changes (Kabat numbering); scFv linker; VL paired with the VH humanization library; likely as the VL of m4; Selected as ccFv on phage, converted to scFv; source: Pichia pastoris X33 (pPIC6 alpha), culture supernatant, purified (Ni-NTA)
B4: X78 scFv (humanization lead) (scFv, V domains shown)
VH: B1 VH with S17T, S21T, I37V, L83M, Y101H, R105S
VL: B1 VL
notes: as for B3
B5: X65 scFv (VH-CDR3 variant H97Y, S100aR) (scFv, V domains shown)
VH: B1 VH with Q6E, V11L, I37V, V68F, L83M
VL: B1 VL
notes: as the VH of m4 (WT framework) with the stated VH-CDR3 changes; scFv linker; Converted to scFv; source: Pichia pastoris X33 (pPIC6 alpha), culture supernatant, purified (Ni-NTA)
B6: X63 scFv (VH-CDR3 variant H97Y, S100aT) (scFv, V domains shown)
VH: B1 VH with Q6E, V11L, I37V, V68F, L83M, R105T
VL: B1 VL
notes: as the VH of m4 (WT framework) with the stated VH-CDR3 changes; scFv linker; Selected as ccFv on phage, converted to scFv; source: Pichia pastoris X33 (pPIC6 alpha), culture supernatant, purified (Ni-NTA)
B7: X64 scFv (VH-CDR3 variant S100aR) (scFv, V domains shown)
VH: B1 VH with Q6E, V11L, I37V, V68F, L83M, Y101H
VL: B1 VL
notes: as the VH of m4 (WT framework) with the stated VH-CDR3 change; scFv linker; Selected as ccFv on phage, converted to scFv; source: Pichia pastoris X33 (pPIC6 alpha), culture supernatant, purified (Ni-NTA)

biological target: T1, recombinant human VEGF (R&D Systems, 293-VE/CF) (Homo sapiens, UniProt P15692-4); experiment: SPR; Biacore, 35°C; VEGF amine-coupled to a CM5 chip (about 300 RU); monomeric scFv (after Superdex 75) in PBS at 10 to 160 nM; global fit to 1:1 Langmuir model; conditions: both partners purified
T1 construct: recombinant human VEGF, R&D Systems 293-VE/CF; also called VEGF antigen; source: bought: R&D Systems (293-VE/CF)
T1 sequence (P15692 whole entry): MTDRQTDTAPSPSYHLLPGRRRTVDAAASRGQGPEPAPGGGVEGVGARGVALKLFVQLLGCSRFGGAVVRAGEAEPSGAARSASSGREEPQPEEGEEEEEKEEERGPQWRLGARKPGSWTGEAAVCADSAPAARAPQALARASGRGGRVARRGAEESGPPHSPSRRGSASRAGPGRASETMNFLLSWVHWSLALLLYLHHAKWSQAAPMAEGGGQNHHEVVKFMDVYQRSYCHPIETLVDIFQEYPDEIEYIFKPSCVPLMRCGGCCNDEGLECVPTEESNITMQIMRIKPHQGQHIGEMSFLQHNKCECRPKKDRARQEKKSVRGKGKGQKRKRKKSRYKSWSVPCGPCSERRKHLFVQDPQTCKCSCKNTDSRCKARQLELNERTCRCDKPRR

Binder | Kd
B1 | 0.12 nM
B2 | 0.11 nM

biological target: T1, recombinant human VEGF (R&D Systems, …); experiment: SPR; Biacore, 25°C; VEGF amine-coupled to a CM5 chip (about 300 RU); monomeric scFv (after Superdex 75) in PBS at 10, 20, 40, 80, 160 nM, 30 µl/min, 5 min association, 10 min dissociation; global fit to 1:1 Langmuir model; conditions: both partners purified

Binder | Kd
B3 | 3.1 nM
B4 | 5.9 nM
B5 | 1.5 nM
B6 | 2.2 nM
B7 | 5.4 nM

From article PMC3084267, “Antibody Engineering Using Phage Display with a Coiled-Coil Heterodimeric Fv Antibody Fragment” (PLoS ONE, 2011)
